Laboratory results from doi:10.1101/2024.02.12.579695.
Each block holds one molecule with its values, some of them ahead of it.

Key:
[1] = biological target: DR2539 full length (Deinococcus radiodurans); test: SEC
[2] = biological target: DR2539 full length (Deinococcus radiodurans); test: SAXS
[3] = biological target: truncated DR2539 (DR2539tr, residues 4-142) (Deinococcus radiodurans); test: SAXS
DR2539 full length = biological target: T1, DR2539 full length (Deinococcus radiodurans, UniProt Q9RRF3 1-232); test: EMSA
T1 sequence: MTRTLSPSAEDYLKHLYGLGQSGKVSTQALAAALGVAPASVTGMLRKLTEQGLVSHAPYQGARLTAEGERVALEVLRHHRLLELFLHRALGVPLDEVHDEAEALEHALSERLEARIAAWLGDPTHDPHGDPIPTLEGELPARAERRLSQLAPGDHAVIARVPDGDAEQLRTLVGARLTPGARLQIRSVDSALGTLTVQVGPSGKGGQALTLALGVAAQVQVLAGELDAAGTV

stoichiometry N [1]: 2 | stoichiometry N [2]: 2
Molecule: DR2539 full length (natural protein)

stoichiometry N [3]: 2
Molecule: truncated DR2539 (DR2539tr, residues 4-142) (domain or fragment)

B1: dr1709p_wt (dsDNA)
DNA 1: ATTTTAGTCGCGCCTAAAATA
DNA 2: TATTTTAGGCGCGACTAAAAT
binding result (DR2539 full length): binds
